This is an account of results in doi:10.1101/2024.03.25.586624.

The target of test [1] is synthetic sfGFP peptide, peptide variant 14. Kind of test: AlphaScreen or HTRF. Background: Alpha assays give light when donor and acceptor beads are brought close together.
The target in test [2] is synthetic sfGFP peptide, peptide variant 9. Kind of test: AlphaScreen or HTRF.

In test [1], “MBP-TbtF RRE domain (domain or fragment)” registered a fold of the AlphaLISA signal of the wild-type TbtA leader sequence of 2 fold. The same substance gave an AlphaLISA signal, percent of the wild-type TbtA leader sequence in test [2] of 25%.
